Source: article PMC9893541

Molecular target: T1, GDF5 homodimer (human) (UniProt P43026)
T1 sequence: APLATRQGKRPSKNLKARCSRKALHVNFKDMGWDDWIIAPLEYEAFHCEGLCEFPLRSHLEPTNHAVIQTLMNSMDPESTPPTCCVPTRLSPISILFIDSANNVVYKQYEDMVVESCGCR

Chain of Noggin (Q13253 28-232): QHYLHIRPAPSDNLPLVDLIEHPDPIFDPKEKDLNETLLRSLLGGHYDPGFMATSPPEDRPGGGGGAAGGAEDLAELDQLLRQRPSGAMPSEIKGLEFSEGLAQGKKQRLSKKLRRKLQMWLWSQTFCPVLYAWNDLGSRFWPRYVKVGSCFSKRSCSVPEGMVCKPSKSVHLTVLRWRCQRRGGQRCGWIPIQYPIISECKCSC

| IC50 of inhibition of signalling by 5 nM GDF5, luciferase reporter in BRITER osteoblast cells [nM] | Substance |
| --- | --- |
| 38 | Gremlin-2 (from UniProt O88273 22-168) (natural protein) |
| 42 | Noggin (from UniProt Q13253 28-232) (natural protein) |
